This assay deals with T7-tagged TanGIBLE (Tandem BAG6 domain I BUILD linked entity) (human) (UniProt P46379). The assay can be described thus: co-IP.

“Flag-tagged IL-2 receptor α subunit without its signal sequence (Flag-IL-2Rα ΔSS) (domain or fragment)” returned a fold co-precipitated against BAG6 N200, with MG-132 of 2.4 fold and a fold co-precipitated against BAG6 N200, without MG-132 of 5.6 fold.

The values are drawn from PMC11734626.
